# Laboratory results taken from publication PMC7117682.
# What was measured:
# [1] = molecular target: CD47 naturally expressed on CD47(+) Jurkat T lymphoma cells (human (endogenous in Jurkat)) (UniProt Q08722); experiment: laser scanning cytometry (LSC) on cells; competition on live CD47(+) Jurkat cells, 384-well, homogeneous: a fixed concentration of SIRPα-biotin (20 nM) co-incubated with a titration of the competitor or inhibitor, neutravidin-Alexa488
# [2] = molecular target: CD47 naturally expressed on CD47(+) Jurkat T lymphoma cells (human (endogenous in Jurkat)) (UniProt Q08722); experiment: laser scanning cytometry (LSC) on cells; titration of SIRPα-biotin on live DRAQ5-labelled Jurkat cells, 384-well, homogeneous (no wash), HEPES buffer (10 mM HEPES pH 7.5, 0.15 M NaCl), room temperature, neutravidin-Alexa488 0.5 μg/mL; SIRPα presented as a multimer on tetrameric neutravidin (avidity)
# Sequence of CD47 naturally expressed on CD47(+) Jurkat T lymphoma cells (human (endogenous in Jurkat)) (Q08722 19-323): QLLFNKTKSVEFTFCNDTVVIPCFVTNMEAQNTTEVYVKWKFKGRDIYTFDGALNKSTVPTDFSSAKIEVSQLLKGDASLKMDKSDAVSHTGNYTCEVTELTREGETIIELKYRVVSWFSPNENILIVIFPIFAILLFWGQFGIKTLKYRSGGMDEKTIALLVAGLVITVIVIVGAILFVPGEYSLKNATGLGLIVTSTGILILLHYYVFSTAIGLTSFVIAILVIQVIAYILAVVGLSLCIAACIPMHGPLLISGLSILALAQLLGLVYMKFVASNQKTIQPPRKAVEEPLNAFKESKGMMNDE
IC50 [1] [µM],EC50 [2] [µM],fold more potent than SIRPαV1 [2] [fold],Substance
3,–,–,"SIRPα variant 2, non-biotin conjugated (cold) (domain or fragment)"
–,0.016,2,"SIRPα variant 2, biotin-conjugated (SIRPα-Avi-biotin d1 construct) (domain or fragment)"
